How the values were obtained:
Experiment in all cases: cryo-EM structure
[1] = target: L. monocytogenes 70S ribosome (Listeria monocytogenes (endogenous in EDG-e)) (UniProt B8DAY5)
[2] = target: E. faecalis 70S ribosome (Enterococcus faecalis (endogenous in TX5332))
[3] = target: S. aureus 70S ribosome (Staphylococcus aureus (endogenous in SH1000)) (UniProt P48940)
Sequence of UniProt P48940 (P48940 whole entry, looked up): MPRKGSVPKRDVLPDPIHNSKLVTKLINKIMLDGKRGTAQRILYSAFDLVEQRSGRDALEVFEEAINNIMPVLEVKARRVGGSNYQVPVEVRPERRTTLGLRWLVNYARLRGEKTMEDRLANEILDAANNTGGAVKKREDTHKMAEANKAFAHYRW

## L. monocytogenes VgaL-EQ2-HTF (Lmo0919, ATPase-deficient E104Q/E408Q, C-terminal His6-TEV-FLAG3 tag) (natural protein)
[1]
  occupancy of the factor on the ribosome (percent of picked ribosomal particles): 70%

## E. faecalis LsaA-EQ2-HTF (ATPase-deficient E142Q/E452Q, C-terminal His6-TEV-FLAG3 tag) (natural protein)
[2]
  occupancy of the factor on the ribosome (percent of picked ribosomal particles): > 95%

## S. haemolyticus VgaALC-EQ2-FLAG3 (ATPase-deficient E105Q/E410Q, C-terminal FLAG3 tag) (natural protein)
[3]
  occupancy of the factor on the ribosome (percent of picked ribosomal particles): 60%
